According to publication PMC5706988:

Target: zonula occludens-1 (ZO-1) (UniProt Q07157)
Experiment: anti-ZO-1 co-IP, Cx43 blot
Conditions: reference: wild type; sites S373

connexin43 (Cx43) (from UniProt P08050) S373A
binding against the reference: stronger
